# From article PMC5685557 (Structure (London, England : 1993), 2017)
# Positions count from the first letter of the chain named. Names may count otherwise. “And” between values parts separate entries of the source, which are not always exact repeats. Equal values may be shown once.
# B1: myocilin coiled-coil construct CC_(60-185) (domain or fragment, human, UniProt Q99972 60-185, looked up)
# chain: SCPEQSQAMSVIHNLQRDSSTQRLDLEATKARLSSLESLLHQLTLDQAARPQETQEGLQRELGTLRRERDQLETQTRELETAYSNLLRDKSVLEEEKKRLRQENENLARRLESSSQEVARLRRGQC
# B2: myocilin coiled-coil construct CC_(69-184) (domain or fragment, human, UniProt Q99972 69-184, looked up)
# chain: SVIHNLQRDSSTQRLDLEATKARLSSLESLLHQLTLDQAARPQETQEGLQRELGTLRRERDQLETQTRELETAYSNLLRDKSVLEEEKKRLRQENENLARRLESSSQEVARLRRGQ
# B3: myocilin N-terminal domain construct NTD_(33-226), wild type (domain or fragment, human, UniProt Q99972 33-226, looked up)
# chain: RTAQLRKANDQSGRCQYTFSVASPNESSCPEQSQAMSVIHNLQRDSSTQRLDLEATKARLSSLESLLHQLTLDQAARPQETQEGLQRELGTLRRERDQLETQTRELETAYSNLLRDKSVLEEEKKRLRQENENLARRLESSSQEVARLRRGQCPQTRDTARAVPPGSREVSTWNLDTLAFQELKSELTEVPASR
# B4: NTD_(33-226) (C47S/C61S/C185S) (domain or fragment, human, UniProt Q99972 33-226, looked up)
# chain: B3 chain with C15S, C29S, C153S
# B5: myocilin coiled-coil construct CC_(69-185) (domain or fragment, human, UniProt Q99972 69-185, looked up)
# chain: SVIHNLQRDSSTQRLDLEATKARLSSLESLLHQLTLDQAARPQETQEGLQRELGTLRRERDQLETQTRELETAYSNLLRDKSVLEEEKKRLRQENENLARRLESSSQEVARLRRGQC
# B6: myocilin construct CC_(33-111) (domain or fragment, human, UniProt Q99972 33-111, looked up)
# chain: RTAQLRKANDQSGRCQYTFSVASPNESSCPEQSQAMSVIHNLQRDSSTQRLDLEATKARLSSLESLLHQLTLDQAARPQ
# B7: mouse myocilin leucine zipper construct mLZ_(93-171) (domain or fragment, UniProt O70624 93-171, looked up)
# chain: VTGTQEAQEGLQGQLGALRRERDQLETQTRDLEAAYNNLLRDKSALEEEKRQLEQENEDLARRLESSSEEVTRLRRGQC
# B8: myocilin coiled-coil construct CC_(112-185) (domain or fragment, human, UniProt Q99972 112-185, looked up)
# chain: ETQEGLQRELGTLRRERDQLETQTRELETAYSNLLRDKSVLEEEKKRLRQENENLARRLESSSQEVARLRRGQC
# What was measured:
# SEC-SAXS = molecular target: the molecule itself; assay: SEC-SAXS
# SEC [1] = molecular target: the molecule itself; assay: SEC
# non-reducing SDS-PAGE = molecular target: the molecule itself; assay: non-reducing SDS-PAGE
# cross-linking = molecular target: the molecule itself; assay: cross-linking
# SEC [2] = molecular target: the molecule itself; assay: SEC; remark: listed apart in the source
Protein,stoichiometry N (SEC-SAXS),stoichiometry N (SEC [1]),stoichiometry N (non-reducing SDS-PAGE),stoichiometry N (cross-linking),binding result (SEC [2])
B1,4.9,,,,
B2,,4,,,
B3,,,~8,2 and 4,
B4,,,,,binds
B5,3.6,,2,4,
B6,2.8,4,,2,
B7,2.2,,,,
B8,2.4,2,,,
